Here are results for 97 sequences from the supplement of paper PMC6755084.

This series deals with F1*sub RNA substrate (template-directed ligation). Description: fraction ligated after 30 min (ligated reads / total reads); higher = more ligase activity; sequences stand for … in GAGACCGCAACTGAAAAGTTGT…AGTTCTGCACGTAGAAGCAAAAGGC
Particulars: 42 °C. The gist of the method:
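Ligase ribozyme variants were made from oligo-pool templates by PCR amplification, T7 transcription and gel purification. After gel separation, ligated and unligated bands were reverse transcribed with barcoded primers and sequenced on a MiSeq, with core bases filtered at quality ≥20. The fraction ligated for each variant was the number of ligated reads divided by total reads.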
With “TATCACTTTGTAAGACACTTTGGTGGGTTGA [3d1474]”, the fraction ligated came to 0.0671.

“TATCACTTGTCGAGCACTTTGGATGGGTTGA [3d1904]” showed a fraction ligated of 0.749.

Sequence “TATCACTTGTCGTAAGCCTTTGGATGGTTGA [3d2118]” had a fraction ligated of 0.364.

“TATCACTTGTCGAAACATTTGGATGGGTTGA [3d1917]”: the fraction ligated worked out at 0.821.

For the sequence “TATCACTTGTGAAGACCTTTGGATGGGTTGA [3d1722]”, the fraction ligated was found to be 0.823.

Consider TTCACTTGTCGTAAGACCTTGGATGGGTTGA [3d470], for which the fraction ligated came to 0.678.

TTCACTTGTCGTAAGACCTTTGGATGGGTTA [3d475]: the fraction ligated stood at 0.347.

“TATCACTGTCTAAGACACTTTGGATGGTTGA [3d1369]” came in with a fraction ligated of 0.239.

Sequence TACACTTGTCGTAAGACATTTGGATGGTTGA [3d711] returned a fraction ligated of 0.113.

On to “TATCACTTTCGTAAGACACTTTGGTGGGTTA [3d1576]”, for which the fraction ligated turned out to be 0.0309.

Sequence TTATTGTCGTAAGACACTTTGGATGGGTTGA [3d278] yielded a fraction ligated of 0.076.

Sequence “TATCACTTGTCTAAGCACTTTGGATGGTTGA [3d1853]” returned a fraction ligated of 0.165.

In turn, “TATCACTTGCGTAAGACACTTTGGAGGGTTG [3d1700]” displayed a fraction ligated of 0.0669.

Sequence “TATCACTTTCGTAAGAACTTTGATGGGTTGA [3d1541]” gave a fraction ligated of 0.829.

The sequence TATACTGTGTAAGACACTTTGGATGGGTTGA [3d780] had a fraction ligated of 0.8.

Sequence “TATCACTTGCTAAGACACTTTGGATGGGTTGA [2d164]” displayed a fraction ligated of 0.822.

On to ATCACTTGTCAAGACACTTTGGATGGGTTGA [3d171], for which the fraction ligated amounted to 0.749.

Sequence “TATCACTTGCGTAAGACACTTTGTGGGTTGA [3d1689]” had a fraction ligated of 0.05.

For “TATCACTGTCGTAAGACACTTTGGATGGGTTG [2d146]”, the fraction ligated stood at 0.798.

Regarding “TATCATTGTCGTAAGACATTGGATGGGTTGA [3d1262]”, the fraction ligated stood at 0.801.

Consider ATCACTTGTCGTAAGACACTTTGGAGGTTGA [3d270], for which the fraction ligated came out at 0.0103.

With TATACTTGCGTAAGCACTTTGGATGGGTTGA [3d817], the fraction ligated turned out to be 0.739.

Take “TATCACTTTCGTAAGACATTTGGATGGGTTG [3d1560]”: the fraction ligated turned out to be 0.811.

Take “TATCACTTGTCGTGACACTTTGGATGGGTTGA [2d221]”: the fraction ligated was determined as 0.808.

Turning to ATCACTTGTGTAAACACTTTGGATGGGTTGA [3d159], the fraction ligated amounted to 0.837.

TATCCTGTCGTAGACACTTTGGATGGGTTGA [3d955] showed a fraction ligated of 0.779.

In turn, TACCTTGTCGTAAGAACTTTGGATGGGTTGA [3d537] displayed a fraction ligated of 0.253.

On to “TATCACTGTCGTAAGCACTTTGGATGGTTGA [3d1415]”, for which the fraction ligated worked out at 0.175.

Take “TATCACTTGTCGTAAGACATTGGTGGGTTGA [3d2209]”: the fraction ligated came to 0.0429.

For “TATCACTTGTCGTAAGAACTTTGATGGGTTGA [2d256]”, the fraction ligated turned out to be 0.79.

In turn, TTCACTTGTCGTAAACACTTTGGATGGTTGA [3d449] gave a fraction ligated of 0.067.

Consider “TATCACTTGCGAGACACTTTGGATGGGTTGA [3d1613]”, for which the fraction ligated is 0.821.

“TATCCTTGTCGTAAGACATTTGATGGGTTGA [3d1091]”: the fraction ligated was 0.775.

“TATCACTGTCGTAAGACACTTTGGATGGTTG [3d1461]” came in with a fraction ligated of 0.33.

Sequence “TATCACTTGTCGTAAGACACTTGATGGGTTA [3d2242]” came in with a fraction ligated of 0.0227.

With TACACTTGTCGTAAGACCTTTGGAGGGTTGA [3d703], the fraction ligated was found to be 0.0299.

The sequence “TATCACTTGTCGTAAGACATGGATGGGTTGA [3d2207]” registered a fraction ligated of 0.808.

Take TTCACTTGTCGTAAGACACTTGATGGGTTGA [3d485]: the fraction ligated worked out at 0.0622.

“TATCACTTGTCGAAGACACTTTGGATGGGTTA [2d219]” gave a fraction ligated of 0.803.

The sequence “TATCACTTGTCGTAAGCCTTTGGATGGGTTG [3d2120]” returned a fraction ligated of 0.782.

Sequence “TATCATTGTGTAAGCACTTTGGATGGGTTGA [3d1176]” came in with a fraction ligated of 0.86.

In turn, “TATCATTGCGTAAGACACTTTGATGGGTTGA [3d1166]” registered a fraction ligated of 0.681.

For ATCACTTTCGTAAGACACTTTGGATGGGTTG [3d139], the fraction ligated amounted to 0.777.

Consider “TATCACTTGTCGTAAGAACTTTGGAGGGTTA [3d2177]”, for which the fraction ligated is 0.075.

Sequence “TATCACTTGTCGAAGACACTTTGGAGGTTGA [3d1974]” gave a fraction ligated of 0.0837.

Regarding “TATCACTTGTCGAAGACACTTTGGTGGGTTA [3d1972]”, the fraction ligated is 0.103.

In turn, “TATCACTTGTCGTAAGAATTTGGATGGGTTA [3d2157]” gave a fraction ligated of 0.765.

In turn, TATCTTGCGTAAGACACTTTGGATGGGTTGA [3d741] yielded a fraction ligated of 0.828.

TTCCTTGTCGTAAGACACTTTGATGGGTTGA [3d311] registered a fraction ligated of 0.595.

With “TATCACTTGCGTAAGCACTTGGATGGGTTGA [3d1652]”, the fraction ligated turned out to be 0.792.

With TACACTTGTCGAAACACTTTGGATGGGTTGA [3d647], the fraction ligated turned out to be 0.16.

ATCACTTGTCTAAGACACTTTGGATGGTTGA [3d182] yielded a fraction ligated of 0.676.

In the case of “TATCACTTGTCGTAAACACTTTGATGGGTTG [3d2093]”, the fraction ligated came out at 0.682.

“TATCCTTGTCGTAAGACACTTTGGAGGGTTA [3d1115]” yielded a fraction ligated of 0.00568.

For the sequence “TATCACTTGTCGTAAGCCTTTGGATGGGTTA [3d2119]”, the fraction ligated is 0.79.

As to “TATCACTTGTCTAAGACCTTTGGAGGGTTGA [3d1867]”, the fraction ligated turned out to be 0.202.

Consider TTCCTTGTCGTAAGACACTTTGGATGGGTTGA [2d26], for which the fraction ligated was 0.778.

Consider “TATCACTTTCGTAAGCACTTTGGATGGTTGA [3d1536]”, for which the fraction ligated came to 0.0345.

Take TTCACTTGTGTAAACACTTTGGATGGGTTGA [3d390]: the fraction ligated was 0.793.

Sequence TATCCTTTCGTAAGACACTTTGGAGGGTTGA [3d980] registered a fraction ligated of 0.0203.

On to “TATCACTTGTGTAAACATTTGGATGGGTTGA [3d1746]”, for which the fraction ligated was 0.833.

For “TATCACTTGTCAAGACCTTTGGATGGGTTGA [3d1814]”, the fraction ligated was 0.762.

Consider TCACTTGCGTAAGACACTTTGGATGGGTTGA [3d7], for which the fraction ligated stood at 0.493.

ATCTTGTCGTAAGACACTTTGGATGGGTTGA [3d46]: the fraction ligated came to 0.774.

The sequence “TATCACTTGTCGTAAACATTTGATGGGTTGA [3d2075]” returned a fraction ligated of 0.384.

Sequence “TATCACTTGTCGTAAGACCTTTGTGGGTTGA [3d2191]” yielded a fraction ligated of 0.0153.

Take “TATCACTTTCGTAAGACACTTTGGATGGGTTG [2d162]”: the fraction ligated was found to be 0.777.

On to “TATCACTTGTCGAAGACACTTTGGATGGTTG [3d1978]”, for which the fraction ligated worked out at 0.432.

ATCACTTTCGTAAGACACTTTGGTGGGTTGA [3d135]: the fraction ligated was determined as 0.00882.

In turn, “TATCACTTGTCTAAGACACTTTGAGGGTTGA [3d1887]” gave a fraction ligated of 0.0527.

Turning to TTCACTTGTCGTAGACACTTTGGATGGGTTA [3d440], the fraction ligated stood at 0.341.

TATACTTGTCTAAGACACTTTGGATGGTTGA [3d854]: the fraction ligated is 0.0769.

For the sequence “TATCATTGTCGTAAGAACTTTGGATGGTTGA [3d1252]”, the fraction ligated stood at 0.0537.

In turn, TACACTTGTCGTAAGACACTTTGGTGGGTTA [3d729] displayed a fraction ligated of 0.00637.

As for TTCACTTGTCGAAGACACTTTGGATGGGTTG [3d428], the fraction ligated was determined as 0.78.

For “TATCCTTGTCTAGACACTTTGGATGGGTTGA [3d1016]”, the fraction ligated is 0.763.

With “TATCACTTGTCGTAAACACTTTGGTGGGTTA [3d2096]”, the fraction ligated is 0.057.

“TATCACTTGTCTAAGACACTTTGGTGGGTTG [3d1894]” registered a fraction ligated of 0.0778.

As to “TATCACTTGTCGTAAGACACTTATGGGTTGA [3d2238]”, the fraction ligated is 0.0156.

On to “TATCACTTGTCGTAACACTTTGGTGGGTTGA [3d1998]”, for which the fraction ligated came out at 0.0145.

Take ATCACTTGTCGTAAACCTTTGGATGGGTTGA [3d212]: the fraction ligated came out at 0.758.

TACACTTGTCTAAGAACTTTGGATGGGTTGA [3d636]: the fraction ligated amounted to 0.116.

Turning to TACACTTGTCGTAAACACTTTGGATGGGTTGA [2d57], the fraction ligated came out at 0.0886.

As to TTCCTTGTCTAAGACACTTTGGATGGGTTGA [3d302], the fraction ligated came to 0.78.

The sequence TACACTTGTCGTAGACACTTTGATGGGTTGA [3d666] registered a fraction ligated of 0.0743.

Turning to “TATCACTTGTGTAGACCTTTGGATGGGTTGA [3d1735]”, the fraction ligated came to 0.845.

Consider TATACTTGTCGTAAGAATTTGGATGGGTTGA [3d903], for which the fraction ligated was 0.769.

“TATCACTTGTCGAAGACCTTTGGAGGGTTGA [3d1946]” returned a fraction ligated of 0.198.

The sequence “TATCACTTGTCTAAGCACTTTGGTGGGTTGA [3d1851]” gave a fraction ligated of 0.108.

“TATCACTTGTGTAAGACACTTTGTGGGTTGA [3d1794]” showed a fraction ligated of 0.00464.

Take “TATCACTTGTCGTAAGACCTTTGATGGGTTA [3d2194]”: the fraction ligated amounted to 0.0671.

In turn, TACACTTGTCGTGACACTTTGGATGGGTTGA [3d659] yielded a fraction ligated of 0.0318.

As for “TATCCTTGTCGAGACACTTTGGATGGGTTGA [3d1029]”, the fraction ligated is 0.793.

Take “TATCACTTTCTAAGAACTTTGGATGGGTTGA [3d1483]”: the fraction ligated worked out at 0.87.

With “TATCACTTGTCTAAGCATTTGGATGGGTTGA [3d1848]”, the fraction ligated amounted to 0.818.

The sequence “TATCACTTGTCGTAAGACACTTTGGTGGGTTG [2d292]” returned a fraction ligated of 0.0944.

On to “TATCACTTTCTAAGACACTTTGATGGGTTGA [3d1487]”, for which the fraction ligated amounted to 0.77.
